Source: patent US20250346651A1 (EMORY UNIVERSITY, published 2025)
Substitutions are numbered along the chain they refer to.

T1: recombinant MBP-E2 fusion protein (Human papillomavirus type 16, UniProt P03120 1-365, limits assumed)
T1 construct: The legend says only 'MBP-E2'
T1 sequence: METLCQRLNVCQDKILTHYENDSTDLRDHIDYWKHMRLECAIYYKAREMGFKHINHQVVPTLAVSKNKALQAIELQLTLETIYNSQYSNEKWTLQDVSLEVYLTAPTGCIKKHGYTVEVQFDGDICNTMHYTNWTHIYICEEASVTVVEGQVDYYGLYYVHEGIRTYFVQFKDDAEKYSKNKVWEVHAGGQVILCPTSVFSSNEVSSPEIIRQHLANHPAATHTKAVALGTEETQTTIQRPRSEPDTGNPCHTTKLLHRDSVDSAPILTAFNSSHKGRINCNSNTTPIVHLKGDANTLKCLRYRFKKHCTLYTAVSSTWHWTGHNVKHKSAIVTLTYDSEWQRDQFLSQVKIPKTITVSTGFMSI

B1: 22-E2B2 (antibody, V domains shown)
VH: QVQLVQSGTEVKKPGASVRVSCKASGYTFTEYYLHWVRQAPGQGLEWMGRINPNSGNTNYAQKFNGRVTMTSDTSVNLAYLEVSGLTSDDTAIYYCTRDDSGAFVYWGQGTLVTVSS
VL: ETVLTQSPATLSLSPGERATLSCRSSQVISSYLAWFQQKPGQAPRLLIYDTSNRATGIPARFSGSGSGTDFTLTISSLEPEDFAVYYCQQRTNWPPREKITFGPGTKVDIK
B2: 22-E2F7 (antibody, V domains shown)
VH: B1 VH with T28S, N54K, F64L, L78V, S101N
VL: B1 VL with T92I, K111R
B3: 22-E2D4 (antibody, V domains shown)
VH: QVQLVQSGAEVKRPGSSVKVSCKASGDNFNNYAFHWVRQAPGQGLEWMGRTIPFLGLTSYSPNIQGRVSISADKSTATAFMEMSGLRSEDTAMYYCASSIRLGDFLYRASYYYSSPLDVWGQGTTVTVSS
VL: EVVLTQSPGTLSLSPGDRATLTCRAGQTISNSYLAWYQQKPGQAPRLLISGVSSRATGIPDRFSGSGSGTDFTLTISRLEPEDFAVYYCQLYGNSPSFGQGTRLEIK
B4: 21-1H3 (antibody, V domains shown)
VH: QVQLVQSGAEVKKPGSSVKVSCKASGGTFANSGVAWVRQAPGQGLEWMGGLIPVFGAADYAQKFRGRLSITADESSTTAFMELDSLRSDDTAVYYCAKDHFTYNKYFSWFDPWGQGTLVIVSS
VL: QTVVTQEPSLSVSPGGTVTLTCALSSGSVSTSYYPSWYQQTPGQAPRTLIYSTNLRSSGVPDRFSGSILGNKAALTITGAQADDECDYYCVLFMGSGISMFGGGTKLTVL
B5: 21-1E2 (antibody, V domains shown)
VH: DVQLAESGGGLVQPGDSLTLSCAASGFIFNNYFMSWVRQTPGKGLEWVSGISANGERSIYADSVKGRFTISRDNSKKTVSLQMNSLSAEDTAIYYCARAGCDSTSCYARVGWFGPWGQGILVTVSS
VL: DVVMTQSPDSLAVSLGERATLNCKSRESVLYTTNNRNYLAWYQQKPGQPPKLLIYWASTRESGVPDRFSGSGSGTDFSLTISSLQAEDVAVYYCQQYLTTPPTFGQGTKVEIK
B6: 22-E2G5 (antibody, V domains shown)
VH: EVQVVESGGGLVQPGGSLRLSCAASGFTVNSKFMTWVRQAPGTGLECVSIIYNDGSTYYADSVKGRFTISRDNSKNTLYLQMNRLRPEDTAVYFCARRAFFGGNDDFDIWGQGTLVTVSS
VL: EIVLTQSPGTLSLSPGDRATLSCRAGQSVSSSFLAWYQQRPGQPPRLLIYGASSRATDIPDRFSGSGSGTDFTLTISRLEPEDFAVYYCHQYSSSLPTFGPGTKVEIK
B7: 22-1B10 (antibody, V domains shown)
VH: QVQLVQSGSELRKPGASVTVSCKASGYTFSNHDMSWVRQAPGQGLEWMGWINSNTGNPTYAQGFTGRFVFSLDTSVSTAYLQISSLKSEDTAVYYCAKGGGICSGSRCYSGWFDSWGKGTLVAVSS
VL: QLVLTQSPSASASLGASVKLTCTLSSGHSGYAIAWHQQQPEKGPRYLMKLNSDGTHTKGDGIPDRFSGSSSGAERYLTISSLQSEDEADYYCQTWGTGIQVFGTGTKVTILG
B8: 22-E2C5 (antibody, V domains shown)
VH: QVQLVQSGAEVKKPGASVKVSCRTSGYSFTRYYIHWVRQSPGRGLEWMGIIDPNNGGTTSAKTLLGKVSMTRDTSTSTAHLELTSLGPEDTAVYYCAILYSNGLEVWDYWGQGTLVTVSS
VL: SHELTQPPSVSVSPGQTAQITCSGDTLPDNYAYWYQQRSGQAPVLVVYEDNKRPSGIPERFSGSSSGTMATLTISGAQVEDDADYYCYSSDRSNNFFGGGTKLTVLS

What was measured:
[1] = molecular target: T1, recombinant MBP-E2 fusion protein; assay: ELISA, plate coated with MBP-E2, purified antibody
Experimental: ELISA plates coated with recombinant MBP-E2 fusion protein were incubated with purified human monoclonal antibodies.

[2] = molecular target: T2, recombinant MBP-E6 fusion protein (Human papillomavirus type 16, UniProt P03126 1-158); assay: ELISA, plate coated with MBP-E6, purified antibody
T2 construct: The legend says only 'MBP-E6'
T2 sequence (P03126 whole entry, the tested form may be a part): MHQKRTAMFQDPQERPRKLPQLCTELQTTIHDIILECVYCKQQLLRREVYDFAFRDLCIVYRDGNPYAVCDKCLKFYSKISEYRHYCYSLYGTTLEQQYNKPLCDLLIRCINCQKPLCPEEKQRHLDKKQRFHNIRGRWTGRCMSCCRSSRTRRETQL
Experimental: ELISA plates coated with recombinant MBP-E6 fusion protein were incubated with purified human monoclonal antibodies.

Row | Binder | binding result [1] | binding result [2]
1 | B1 | binds | –
2 | B2 | binds | –
3 | B3 | binds | –
4 | B4 | – | binds
5 | B5 | – | binds
6 | B6 | binds | –
7 | B7 | binds | –
8 | B8 | binds | –
